# B1: Forkhead box protein E1 (Homo sapiens), O00358 (parent)
# chain: MTAESGPPPPQPEVLATVKEERGETAAGAGVPGEATGRGAGGRRRKRPLQRGKPPYSYIALIAMAIAHAPERRLTLGGIYKFITERFPFYRDNPKKWQNSIRHNLTLNDCFLKIPREAGRPGKGNYWALDPNAEDMFESGSFLRRRKRFKRSDLSTYPAYMHDAAAAAAAAAAAAAAAAIFPGAVPAARPPYPGAVYAGYAPPSLAAPPPVYYPAASPGPCRVFGLVPERPLSPELGPAPSGPGGSCAFASAGAPATTTGYQPAGCTGARPANPSAYAAAYAGPDGAYPQGAGSAIFAAAGRLAGPASPPAGGSSGGVETTVDFYGRTSPGQFGALGACYNPGGQLGGASAGAYHARHAAAYPGGIDRFVSAM
# partner: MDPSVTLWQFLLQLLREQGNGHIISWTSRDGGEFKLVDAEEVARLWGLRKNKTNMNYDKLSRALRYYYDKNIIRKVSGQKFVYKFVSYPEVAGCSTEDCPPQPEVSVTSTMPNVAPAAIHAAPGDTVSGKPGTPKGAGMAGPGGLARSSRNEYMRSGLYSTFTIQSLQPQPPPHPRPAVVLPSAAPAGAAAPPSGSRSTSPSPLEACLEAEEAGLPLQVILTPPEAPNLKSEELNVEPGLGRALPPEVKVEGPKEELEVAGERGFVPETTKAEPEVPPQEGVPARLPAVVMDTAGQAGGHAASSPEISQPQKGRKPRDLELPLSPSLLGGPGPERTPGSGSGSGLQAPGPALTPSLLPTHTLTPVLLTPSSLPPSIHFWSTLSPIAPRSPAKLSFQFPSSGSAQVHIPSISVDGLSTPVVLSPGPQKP
# Variants of: B1
# Conditions: with elk1_human ELK1, P19419
row,Variant,effect of a mutation on the interaction
1,MTAESGPPPPQPEVLATVKEERGETAAGAGVPGEATGRGAGGRRRKRPLQRGKPPYSYIALIAMVIAHAPERRLTLGGIYKFITERFPFYRDNPKKWQNSIRHNLTLNDCFLKIPREAGRPGKGNYWALDPNAEDMFESGSFLRRRKRFKRSDLSTYPAYMHDAAAAAAAAAAAAAAAAIFPGAVPAARPPYPGAVYAGYAPPSLAAPPPVYYPAASPGPCRVFGLVPERPLSPELGPAPSGPGGSCAFASAGAPATTTGYQPAGCTGARPANPSAYAAAYAGPDGAYPQGAGSAIFAAAGRLAGPASPPAGGSSGGVETTVDFYGRTSPGQFGALGACYNPGGQLGGASAGAYHARHAAAYPGGIDRFVSAM [A65V],with no effect

# Source: IntAct's records for PubMed 27852061
